Patent publication US6951972

Test system: Ac transposase (Zea mays)
Assay: cell_activity
Conditions: Ds excision from test plasmid in wheat immature embryos; 0 without transposase plasmid

Work on “Ds-Ubi-bar element (254 bp Ds 5' and 320 bp Ds 3' ends)” yielded an activity (blue spots per embryo) of 61.
